Data on 8 molecules can be found in article PMC7144947.

Where two headings read alike, the source gives them in different places.

Series [1] has as its target T1, Sox2-ΔRBM (Mus musculus, UniProt P48432 1-319, del121-180). Nature of the series: EMSA. A general note: In EMSA bound probe runs differently from free probe, usually more slowly.
For a further series, the target named is Sox11 (UniProt Q7M6Y2 1-395). The experiment in a line: EMSA.
For series [2], the target named is T2, Sox2 (Mus musculus, UniProt P48432 1-319). Nature of the series: EMSA.
The next series addresses Sox2(120-319) (Mus musculus, UniProt P48432 120-319). Nature of the series: EMSA.
The next series has as its target Sox2(180-319) (Mus musculus, UniProt P48432 180-319). The experiment in a line: EMSA.
For series [3], the target named is T3, Sox2-ΔHMG (Mus musculus, UniProt P48432 1-319, del41-118). Nature of the series: EMSA.
Series [4] concerns the target T1, Sox2-ΔRBM. Nature of the series: in vitro RIP.
The target in series [5] is T2, Sox2. The experiment in a line: EMSA. This is another data set of the same source.
Another series concerns the target Sox2(1-120) (Mus musculus, UniProt P48432 1-120). Nature of the series: EMSA.
Series [6] has as its target T1, Sox2-ΔRBM. Nature of the series: EMSA. This is another data set of the same source.
The next series concerns the target Sox2(1-180) (Mus musculus, UniProt P48432 1-180). The experiment in a line: EMSA.
Another series deals with Sox1 (Mus musculus, UniProt P53783 1-391). Nature of the series: EMSA.
A further series has as its target Sox2-HMG (Mus musculus, UniProt P48432 41-120). Nature of the series: competition.
For series [7], the target named is T1, Sox2-ΔRBM. Nature of the series: competition.
In series [8] the target is T3, Sox2-ΔHMG. Nature of the series: competition.
Series [9] concerns the target T3, Sox2-ΔHMG. The experiment in a line: competition. The source holds these as a separate data set.

Sox11, sequence (Q7M6Y2 whole entry): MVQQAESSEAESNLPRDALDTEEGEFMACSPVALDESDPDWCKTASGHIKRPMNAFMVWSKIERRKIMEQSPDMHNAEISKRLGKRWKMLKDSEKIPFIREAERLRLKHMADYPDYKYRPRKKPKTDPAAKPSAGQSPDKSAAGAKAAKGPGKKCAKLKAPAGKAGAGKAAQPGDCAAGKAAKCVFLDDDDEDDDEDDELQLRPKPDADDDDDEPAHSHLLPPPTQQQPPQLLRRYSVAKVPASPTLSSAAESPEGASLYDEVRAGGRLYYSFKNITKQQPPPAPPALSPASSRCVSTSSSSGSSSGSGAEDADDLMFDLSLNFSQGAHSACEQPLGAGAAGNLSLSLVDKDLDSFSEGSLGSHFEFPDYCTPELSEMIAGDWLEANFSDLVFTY
Sox1, sequence (P53783 whole entry): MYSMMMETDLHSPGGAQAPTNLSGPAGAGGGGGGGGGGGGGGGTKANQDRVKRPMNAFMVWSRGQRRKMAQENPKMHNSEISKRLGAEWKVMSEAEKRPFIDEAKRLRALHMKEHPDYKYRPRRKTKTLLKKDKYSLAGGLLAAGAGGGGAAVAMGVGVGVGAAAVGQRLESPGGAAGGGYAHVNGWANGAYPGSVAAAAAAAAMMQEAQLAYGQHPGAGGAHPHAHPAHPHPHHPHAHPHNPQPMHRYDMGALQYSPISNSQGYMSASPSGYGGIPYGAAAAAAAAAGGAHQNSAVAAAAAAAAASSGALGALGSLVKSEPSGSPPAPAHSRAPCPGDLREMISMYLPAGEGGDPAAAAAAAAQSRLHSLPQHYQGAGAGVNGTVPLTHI

B1: Sox2/Prox1 DNA (dsDNA)
DNA 1: CTAGCATTGTCTGGG
DNA 2: CCCAGACAATGCTAG
As for B1, the binding result with Sox2-ΔRBM [1], with Sox11 and in the series with Sox2 [2] was “binds” each time.
Turning to CAGCUUUUCCCUGUAGUCAUGAAUG (ssRNA) [Dnmt3b RNA], the binding result is listed as “binds” with Sox2(120-319), “no binding” with Sox2(180-319), “binds” with Sox2-ΔHMG [3] and “no binding” in the series with Sox11.
With CGCGGCUUGCCCUAUUAUAGUGUAG (ssRNA) [12th-24 Mut3], in the series with Sox2-ΔRBM [4], the binding result is “binds”.
As for CGCGGCUUGCCCUAUCGCGGUGUAG (structured_RNA) [12th-24 RNA], the binding result with Sox2 [5] is given as “binds”; with Sox2(1-120) it was “binds”; with Sox2-ΔRBM [6], “binds”; with Sox2(1-180), “binds”; with Sox1, “binds”; with Sox2(180-319) it was “no binding”. The binding result with Sox2-ΔHMG [3] was “binds”.
For CGCGGCUUGCCCUAUCGCGGUGUAG (structured_RNA) [12th-24 RNA unlabelled], the binding result was “no binding” with Sox2-HMG, “binds” with Sox2-ΔRBM [7] and “binds” in the series with Sox2-ΔHMG [8].
Consider GCGGCAAGCCCAUACUCGCGUUCAA (ssRNA) [12th-15 RNA], for which the binding result with Sox2 [5] is “binds”; with Sox11, “no binding”.
Consider CCUGCAGCUCAUGACCCCUGCUUCC (ssRNA) [Dicer1 RNA], for which the binding result with Sox2(120-319) was “binds”; with Sox2(180-319), “no binding”; with Sox2-ΔHMG [3] it was “binds”; in the series with Sox11 it was “no binding”.

B2: Prox1 DNA unlabelled (dsDNA)
DNA 1: CTAGCATTGTCTGGG
DNA 2: CCCAGACAATGCTAG
B2: the binding result is recorded as “binds” in the series with Sox2-HMG, “binds” with Sox2-ΔRBM [7] and “no binding” with Sox2-ΔHMG [9].
